How the values were obtained:
laminin = assay: ELISA binding of pUR4 to ECM proteins: laminin; details: plates coated 10 μg/mL, FIG. 7
Method: FIG. 7 is a graph depicting the binding of pUR4 to ECM Proteins. 96-well plates were coated with 10 μg/mL type I collagen (COL), denatured type I collagen (dCOL), fibronectin (FN), laminin (LN), vitronectin (VN), or fibrinogen (FG) at 4° C. overnight. pUR4 was added to the wells and serially diluted. Bound pUR4 was detected as described herein. Measurements were done at 405 nm on a Wallac 1420 multilabel counter. Data represents the average of duplicate determinations, and the error bars the range.
96-well tissue culture plates were coated with 10 μg/mL type I collagen, fibronectin, laminin, fibrinogen, or vitronectin overnight at 4° C. Denatured collagens were generated as described (George et al., “Fibronectins are Essential for Heart and Blood Vessel Morphogenesis but are Dispensable for Initial Specification of Precursor Cells,” Blood 90:3073-3081 (1997), which is hereby incorporated by reference in its entirety). Plates were blocked with 1% bovine serum albumin (BSA) in Tris buffered saline (TBS) for 1 hour, then washed with TBS. pUR4 was serially diluted into coated wells, then incubated at room temperature for 90 min. Wells were washed with TBS containing 0.1% Tween 20. […] After washing, peroxidase activity was quantified by using 2,2′-azino-bis-(3-ethylbenthiazoline-[…]). […]

[1] = tested on: cell spreading or adhesion to collagen or fibronectin; details: cited from earlier work
[2] = tested on: fibronectin binding to the cell surface; assay: Inhibition of fibronectin binding to the cell surface; assay type: cell-based
Mouse carotid arteries = assay: qRT-PCR of fibronectin and collagen I in carotid arteries after ligation; assay type: in vivo; details: III-11C set equal to 1, mean ± s.e.m., 3 arteries
Method: (§1) mRNA was isolated from RASMs 24 hours after incubation with 500 nM pUR4 or III-11C control peptides using RNAzol as per the manufacturer's instructions (Invitrogen). cDNA was prepared using a Superscript First Strand cDNA kit as per the manufacturer's instructions (Invitrogen). Mouse carotid arteries were harvested and frozen in liquid nitrogen. RNA was isolated using Trizol and purified using a QIAgen RNeasy Micro Kit. RNA integrity was examined with an Agilent 2100 Bioanalyser using RNA6000 NanoAssay (Agilent Technology). Whole transcriptome amplification was performed using Qiagen's QuantiTect Whole Transcriptome Amplification Kit. Quantitative RT-PCR analyses were performed using ABI Prism 7900HT sequence detection system (Applied Biosystems). The qRT-PCR primers for 3 mouse genes were obtained from ABI: GADPH (4352932E), fibronectin (Mm01256744_m1), and collagen Ia1 (Mm00801666_g1). TaqMan probe chemistry was used according to the manufacturer's instructions. qRT-PCR reactions were run in triplicate for each sample. The data was normalized to the levels of GAPDH in each sample, and the results were averaged.
(§2) Blood flow in the left carotid artery of 10-week-old FVB/NJ (FVB) mice was reduced by ligating the external and internal carotid arterial branches as described (Korshunov et al., “Flow-Induced Vascular Remodeling in the Mouse: A Model for Carotid Intima-Media Thickening,” Arterioscler. Thromb. Vasc. Biol. 23:2185-2191 (2003), which is hereby incorporated by reference in its entirety). Mice were anesthetized with an intraperitoneal injection of ketamine (80 mg/kg) and xylazine (5 mg/kg) as described in the above-cited referenced. The left common carotid artery was dissected free of the surrounding connective tissue and 50 μL of F-127 pluronic gel (BASF) containing 20 μmol/L pUR4 or III-11C was applied around the carotid artery. Animals were separated into 5 groups containing 5 to 10 animals each: (1) sham-operated, in which the branches of the left carotid artery were exposed and dissected out, but not ligated; (2) ligation; (3) ligation with pluronic gel; (4) ligation with pluronic gel containing III-11C; (5) ligation with pluronic gel containing pUR4.

Rat aortic SMCs = assay: qRT-PCR of fibronectin and collagen I in SMC; assay type: cell-based; details: 500 nM, 24 h; PBS control set equal to 1; average of duplicates ± range
Method: as §1

[3] = tested on: left carotid artery of FVB mice; assay: Carotid ligation flow-induced vascular remodeling, morphometry; assay type: in vivo, mouse
Method: Both sexes of FVB transgenic mice were used for the carotid ligation experiments, since no significant differences in their modeling response were reported between male and female mice. All procedures were approved by the University of Rochester Animal Care Committee, and were performed in accordance with the guidelines of the National Institutes of Health for the care and use of laboratory animals.
Digital images of Verhoeff-van Gieson elastic stained cross-sections were captured and morphometric analysis was performed using Image-Pro Plus software (Media Cybernetics, Md.). The circumferences of the lumen, internal elastic lamina (IEL) and external elastic lamina (EEL) in the sections were identified using the automatic trace mode in Image-Pro. The accuracy of the automated tracing was verified by visual inspection of the images. Cross-sectional areas of the lumen, neointima, media, adventitia, and the area encompassed by the EEL were measured. Vessel compartment volumes were calculated as described (Intengan et al., “Vascular Remodeling in Hypertension: Roles of Apoptosis, Inflammation, and Fibrosis,” Hypertension 38:581-587 (2001), which is hereby incorporated by reference in its entirety). Briefly, starting with the carotid bifurcation as the origin, a series of cross-sections of 5 μm were cut every 200 μm through the first mm length of the carotid artery. Morphometric analysis was performed at each point, and the average of each division was calculated, summed, and reported as the volume.
as §2
Blood flow in the left and right common carotid artery was measured using an ultrasonic transit-time volume flowmeter (Transonic Systems) before sacrifice. Animals were perfusion-fixed with 10% formalin 7 or 14 days after surgery. The common carotid arteries were harvested and embedded in paraffin. Cross-sections of 5 μm were cut from the bifurcation every 200 μm through the first mm length of the carotid artery as described (Korshunov et al., “Flow-Induced Vascular Remodeling in the Mouse: a Model for Carotid Intima-Media Thickening,” Arterioscler. Thromb. Vasc. Biol. 23:2185-2191 (2003), which is hereby incorporated by reference in its entirety). Sections were stained with Verhoeff-van Gieson elastic stain, and then subjected to morphometric analysis. […]

[4] = vessel compartments analyzed separately

B1: pUR4: 49-mer peptide derived from the bacterial F1 adhesin, His tagged, SEQ ID NO:1; class I fibronectin polymerization inhibitor (peptide)
chain: MRGSHHHHHHGSKDQSPLAGESGETEYITEVYGNQQNPVDIDKKLPNETGFSGNMVETEDTKLN
modifications: His tag; Bacterial adhesin derived peptide pUR4
binding to laminin (laminin): does not bind | inhibition of cell spreading or adhesion to collagen or fibronectin [1]: does not inhibit | EC50 [2]: 10 nM | Col Ia1 mRNA, relative level, Day 4 (Mouse carotid arteries; 4 days post surgery): 0.60 ± 0.30 | Fibronectin mRNA, relative level, Day 4 (Mouse carotid arteries; 4 days post surgery): 0.70 ± 0.23 | Col Ia1 mRNA, relative level, Day 7 (Mouse carotid arteries; 7 days post surgery): 0.58 ± 0.36 | Fibronectin mRNA, relative level, Day 7 (Mouse carotid arteries; 7 days post surgery): 0.41 ± 0.23 | Col Ia1 mRNA, relative level (Rat aortic SMCs): 1.42 ± 0.06 | Fibronectin mRNA, relative level (Rat aortic SMCs): 1.43 ± 0.02 | increase in lumen volume after ligation ([3]; 20 μmol/L in pluronic gel, periadventitial): prevented | carotid (vascular) remodeling ([3]; 20 μmol/L in pluronic gel, periadventitial, 14 days after ligation): dramatically reduced | effect on IMT at 7 days ([3]; 7 days after ligation): no statistical effect | inhibition of adventitial thickening compared to III-11C ([3]; 14 days after ligation): 38% | reduction of extent of IMT (intima-media thickening) vs control peptide ([3]; 14 days after ligation): 40% | remodeling index, pUR4 vs III-11C ([3]; mouse, in vivo): not different | outward remodeling (EEL volume) ([3]; no difference in EEL volume vs shams 7 days post ligation): prevented | reduction of intima thickening [3, 4]: 63% | reduction of media thickening [3, 4]: 27%

Source: patent publication US9364516B2, “Treatment of fibrosis-related disorders using fibronectin binding proteins and polypeptides” (priority 2010, dated 2016)
